Data: the domain aggregation screens of Martell et al. (2025)

Assay: soluble fraction after stress (log2 fold change); higher = more stays soluble; pooled small domains, quantitative proteomics
Conditions: stress: 75 degC
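Further: 20 min heating vs room temperature control held 20 min.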

Sequence	soluble fraction (log2)
HMSPPVIQQGQDVRLIYKGTGFAVSNEGKALNTAADGQVARARTGGGQTVSGIARPGGIIEIT	0.391
HMSPQPPNQEAVRTRILDQAAHLFLTIGYAETTVRRIAGAVGIKAASLYHHFGSKDEVFESILIR	0.274
HMSPRADRSVNLDVGETVQIDDWGADGTAQIRYRGAPWTAVLRPGHTPHPGPHRVIELVGSRLLVEP	0.0352
HMSPRAIYVTTSDLNMRMQPSPNAYKRGVAPRGTELLVVEWGDDWSKVIFEGDTAYAASRYLSYVKDEP	-1.74
HMSQDEVVADMKADLGPDADNIIRSNIQWADGLVRKGILTESEREELDVMGGTPEAQRILVKLRTMQG	0.178
HMSQDTLIENGKVFLIHKVVAGQTLYGLSKAYNITIEDIIKYNPQAENGIKIGEDIKIFLKEE	-0.924
HMSQEHTVPDYKDMEATVVYADLTQKGLNYEIAQETSPTIKEGNVTQTIPGMNEKVVSGDTITVFVSTGTG	0.431
HMSQIDLQIGHKIKSKRRKLGISQADMAKKLYISPSYLNLIESGKRKINVDLLLKLSNELGIEMSDIS	-1.97
HMSQIILSARSGHAALRHRLGELGYTFADKEFDDIYERFLEVADQKKEVYDEDLESIVQERQRD	0.00498
HMSQITEADYIPNTDKTWGELMEETGESLPNLVERYNNEMTKSNGKEQPQSIIQRIIEDYQMVS	0.253
HMSQLSDEQELRDIARGIIEGNPNEAEKYRAGRTGLLGFFVGKLMAETEGKANPRLASRILKELLE	-0.144
HMSQLSQIVDAFGGLRPFARALNKPPSTVQYWIEKGGIPASVVSPIMKLSEEKGLGLSRDQVSAAVS	0.441
HMSQLTVGTVVTGNASLQTQGLKLPSFASGSRPASPNIGQMIWNSSDAKAQIWNGSEWDDVG	-0.0784
HMSQNVSFTVDSGQAGLRLDVFLSQADPAFSRSQIKYAIEEGDVTVNGKEPKVSQHLKDGDIVELHLE	0.0493
HMSQQEAQLNSLVKIYESMKPKDAARIFDTLDMDVLLDVVMRMKEARSAAVLAEMTPDRAKEVTLQLAD	-0.912
HMSQTDQALRHLIREAWATLPQRQQQAVELAYYEGLPDTEIAARLNQPVEEVKTSIVLGMAHLREALHSY	-0.811
HMSQTDTDAKDARQKILALLSDGEWHQKTELLKIDAPKEAVSNAIRYLVLEELISIDHAKVRA	-0.447
HMSQTVKYVNTTSGLNMRTGPATSYAKITTIAYGQSVNVLSTSNGWSKINYSGSTGYVSSQYLQSKKPS	-2.77
HMSQVHYAVLFKNASAAEATEIVTYARETLGVQDIKINANGDILVPEDKVEEMRVSMSIAGFPK	0.23
HMSQVSTKYINVSSAYVRSKPSKDGEIVTSLIKNTDVTVTGENGDWYKIKFNNYEGYIFKELLSDSKLEE	-0.442
HMSRAMFEMHADWQPTDSIRGLLGRAGLPTDIAKLDQSRIGDFVNHWFGKPDRNTADSWNGLLVGWLKRTQ	-1.18
HMSREEFLAGLEEALAGEVPASVIRENLNYYNSYISQEMAKGRTVDEIVDEIGEPRIVARTIIDSSEAAGE	0.319
HMSRELVILGNSMLNNALKAFHVSPASIKKKHWDKLILDYHLESKNNILIDIALGKRINVMVAHQLTSIID	0.408
HMSREVTVPPLSGLTLRDAARTLAERGLLMEAEGQGAVHRQDPPAGTRVPTGTPVRVFLTLPEQNS	0.842

Sequence	soluble fraction (log2)
HMSRGTLFVDVRGAVAKPGVYELPEKSRVFQAVEAAGGLLPEALERLVNQAAELTDGQQVYIPFEGEE	0.405
HMSRLLRTDAHLQYAAERGLPVTASAYTPVFAGAKQYTGRIESFDAQTIRFADGPAVERKAVARLEAE	0.104
HMSRLLTTRQREVFEVATREGFWDVPRRINLSELAKVLGVAKSTLSSQLQRIESAVFHAFTDEIRRQS	-2.09
HMSRMLTVKQREVFDLAMREGYWETPRRITLTMLASLLSVSKSTLSVQLHKIEGTVLSSFSDEVRRRS	-1.87
HMSRQDYLQTIYRLSVGKGYTTNKKIADFLSVSKPSVTEMIGKLQGEGLVAMDGAHIFLTEDGAEQ	-0.595
HMSRVTVDVNPDVLQWAIDKKGKGDIKNKFPKIDEWLNGISKPTIHQLENFAKYVSVPFGYLLLSKPPVE	0.208
HMSRYQDIANDIEKDIIEKKYTRKLPEQFELAQKYQTSRVTIVHALKILQNKKLIRTVKGHGTFITS	-1.84
HMSSDEDELESIIKRVFADNPIELERLQNGEDKLIKFFMGLVMRQTKGKYPPKIIIDLLNKS	-0.599
HMSSDLDQYMKNIRKQHNLSKREFAKQLGISAATIVRIENGITVSPSKNLISKLAYYLQKSEVEILQDIQS	-1.16
HMSSEMATLRSIVDNKQAEKVHGMMVDMFTASAMVQVYDKVNDENQAKMREMLKTQKGFQRMADFALSKI	-0.143
HMSSEPASLVGKTGVAASVLRPSGRVEVNGEYYDAVSINGFIEKGESVFVHKYENAQLYVSKNSE	0.162
HMSSESIKTDKNVGVGSTLEELEKAYGSDYTLSGKMYRYYQDDNSKYMYFFILNDVVQYYGYGIDV	-1.65
HMSSIDLTARSGRAALKHRLSLLGYEFSKIELETLYVRFIELADEKKLLHDEDLIELVKEKN	-3.12
HMSSIRDVVPEGLLSDREKLVLVLAFDRDLDGPDMARTLGISANTVRVLKARALKKLRQAGIQP	-0.954
HMSSIVLTARSGRAALAYRVKSIGVDLSKDQLDLVYKTFLGFADKKKEIIDTDIPQILKASGI	-2.74
HMSSIYVYPNPTANRIYIQADNIKKAELFDLMGRKVRSTNQPQIDISRLSRGNYILQVKTQNNTQSFKIIK	-0.705
HMSSKAVLEKFEALFIDQMLQSMRKATVRSELFDSEGIKLYESLFDKEISEELAKSGGLGLTKDLEQQL	-1.36
HMSSKFKIVGEILSIKKSDILYIIEILSNNEVVKATAVEDEIKDLKIGDKILLSSKAFNPIVNK	-2.29
HMSSLTDNFVKALSYYLALSGKSKKEVADGIGIPPTTFSSWSNGKHLPDMDRLQNLATYLGAPVSEFFDFT	0.238
HMSSPVGIAQATTYVYVRAGHSMQAAKVGVLSPGEKVGVTGRSAQGFSEVVYNGVHRWVGSRYLSPT	-4.43
HMSSQWWYSAGGERKGPVDFATLRGLYVQGAIDGRTLAWREDMQGWEAVNDIPDLEPLRRAVPPEL	-0.0747
HMSSRSLSYSDFIERVDAGQVSKVVMDGERLVVVGQDGTSYVTIKPPGDQVTENLSRELISKGVEVEAEPQ	-0.0305
HMSSRSLTYSDFIERVDAGQVDAVTLDGERIVIRAKDGNTYVAIKPQGEDVTGSLTRDLIAKGVDVEAEPQ	0.204
HMSSSDYDVYNKAINLMLNLLKEPKSIEEVTASLNITKSQAITWINRALNEGKIIKTNRPVRYVVNN	-1.39

Sequence	soluble fraction (log2)
HMSSSYMVRITTSVLNVRKGPGTNYGITTKVKKGEVYTIVAEEKNGNTTWGKLKSGTGYISLGYTER	-1.21
HMSSSYVYGGNGEIVILSDVSKHLNVYNLNGQKVTDVNLTAGELQRISIATGIYVVGGKKIVV	-3.52
HMSSVGELEVGNIFEGTVNSVRGGKVLLALGNGQMVLAQMDGRVNITPGSSMFFQVKSNDGETVAIRPYTG	-0.247
HMSSWAEGLTERERHTLMWITKGLSNKLIARELGISDSTVKVYVKNLLRKLNVNSRLELAAWVHTHPL	-1.2
HMSSYTQEDVRSGILYMAQLKPRNIEEFVSTLAFSKDDIMDNLSFLVDEGFLKFDADTDTYFNPVPL	-0.374
HMSTADGGYPSIVINDGRVIDTNLQKLGLDRSWLSAELKRQGKGSEKDIFLMTVNQRREVYISVKEA	-1.89
HMSTEAFLGTEGEVVLPLLPDGLGKIRLHVADQDVELPARTGGEPIQIRERVVVVRFRDGIAEVEPAP	0.0378
HMSTEDYLKTIYILESQQGVHGSDVARMLKVTRPTVSIALKALEQEGYVWMDESRLVHLTDSGLQIAKDT	-0.914
HMSTESAHLGERMLNQALRAMHIEPDQITEAHWQKLIRDYGLKKKSEILTDIGLGKRQNVMVAHQLLAMG	-0.539
HMSTFKSYRGKITASSGVNIRTGAGTNYNKNGALTYNSVVTIVDEKKVSGTTWGKLADGRGWISLDYLKK	-2.04
HMSTGGDLTQRERELLGLMARGLSNQEISKRLTIAMPTVKFHVTNILAKLHADNRTEAVLVALKNKLVAL	-1.02
HMSTINGIEKYLSSGLIPYIGPKTAKRIVEKFGLDTLEIIQYNPERLKEIEGIGDKKLKKIVEAFEEQG	-0.245
HMSTISPNAFNFLQQNLNKFSDDAEGKMIKDILSKTTYDEYVKNEKSKTDFNSLLRRQTTTGDDNLNRYIN	-0.00511
HMSTKEFTIHAGEWSYRVSQKLENLGLVSDAKKFDQYLEDNGYSSKIKIGHYTISKDADFEEIAKEIT	0.632
HMSTKRGEILEFLKDFSARKGYAPSVREIMQAVGLKSTASVHYHLSELHKAGLITVDGTKNRAISLA	-1.11
HMSTMKSKWFVSSNPIAGVMKYQAQRKKDVNAVDSSENREASGQWYTDKEEAQAIVDKLNAEEQIKEAGK	-0.0426
HMSTMLPFVMRELVELVMKKKALPLGDALYYIYSSKLYKSLLDKSTKLWYSSTLSLYETLEKEKTEEKRRY	-2.04
HMSTMTDAQRHLFANKLSQLPEMGKYSHGTESYQQFAVRIAEMLQTPKKFKELYPYLQKVGFKA	-0.379
HMSTNYVQVLRAALNGVSGRKLAQQYRVSRDTVAILLRQAKIQGWQRAEDLENITEEDLVALLSG	-2.43
HMSTPLPTGLPRGTIIEYTVQTDETLAIIAAKFNSTVDDIMTRNKITDPNTIYAGQILKVAINLVTP	-1.62
HMSTPVPIEGQPTENLNLRDQPSTSGKILTTIPKGKTVTILSEKNANGWYKVSYNGKTGYVSGSYFKVTK	0.916
HMSTSERLKQVMEVKGFNLKTFSEQADIPYRTLQNYILTNREPSAESLAKLHSQLGINLNWLMSGKGEMF	-0.685
